B1: FLAG-tagged wild-type GMCL1 (germ cell-less protein-like 1) [human] / 53BP1 (p53-binding protein 1), endogenous in HEK293T [human (endogenous in HEK293T)] (parent complex)
chain 1: MGSLSSRVLRQPRPALAQQAQGARAGGSARRPDTGDDAAGHGFCYCAGSHKRKRSSGSFCYCHPDSETDEDEEEGDEQQRLLNTPRRKKLKSTSKYIYQTLFLNGENSDIKICALGEEWSLHKIYLCQSGYFSSMFSGSWKESSMNIIELEIPDQNIDVEALQVAFGSLYRDDVLIKPSRVVAILAAACLLQLDGLIQQCGETMKETVNVKTVCGYYTSAGTYGLDSVKKKCLEWLLNNLMTHQNVELFKELSINVMKQLIGSSNLFVMQVEMDIYTALKKWMFLQLVPSWNGSLKQLLTETDVWFSKQRKDFEGMAFLETEQGKPFVSVFRHLRLQYIISDLASARIIEQDAVVPSEWLSSVYKQQWFAMLRAEQDSEVGPQEINKEELEGNSMRCGRKLAKDGEYCWRWTGFNFGFDLLVTYTNRYIIFKRNTLNQPCSGSVSLQPRRSIAFRLRLASFDSSGKLICSRTTGYQILTLEKDQEQVVMNLDSRLLIFPLYICCNFLYISPEKKN
chain 2: MDPTGSQLDSDFSQQDTPCLIIEDSQPESQVLEDDSGSHFSMLSRHLPNLQTHKENPVLDVVSNPEQTAGEERGDGNSGFNEHLKENKVADPVDSSNLDTCGSISQVIEQLPQPNRTSSVLGMSVESAPAVEEEKGEELEQKEKEKEEDTSGNTTHSLGAEDTASSQLGFGVLELSQSQDVEENTVPYEVDKEQLQSVTTNSGYTRLSDVDANTAIKHEEQSNEDIPIAEQSSKDIPVTAQPSKDVHVVKEQNPPPARSEDMPFSPKASVAAMEAKEQLSAQELMESGLQIQKSPEPEVLSTQEDLFDQSNKTVSSDGCSTPSREEGGCSLASTPATTLHLLQLSGQRSLVQDSLSTNSSDLVAPSPDAFRSTPFIVPSSPTEQEGRQDKPMDTSVLSEEGGEPFQKKLQSGEPVELENPPLLPESTVSPQASTPISQSTPVFPPGSLPIPSQPQFSHDIFIPSPSLEEQSNDGKKDGDMHSSSLTVECSKTSEIEPKNSPEDLGLSLTGDSCKLMLSTSEYSQSPKMESLSSHRIDEDGENTQIEDTEPMSPVLNSKFVPAENDSILMNPAQDGEVQLSQNDDKTKGDDTDTRDDISILATGCKGREETVAEDVCIDLTCDSGSQAVPSPATRSEALSSVLDQEEAMEIKEHHPEEGSSGSEVEEIPETPCESQGEELKEENMESVPLHLSLTETQSQGLCLQKEMPKKECSEAMEVETSVISIDSPQKLAILDQELEHKEQEAWEEATSEDSSVVIVDVKEPSPRVDVSCEPLEGVEKCSDSQSWEDIAPEIEPCAENRLDTKEEKSVEYEGDLKSGTAETEPVEQDSSQPSLPLVRADDPLRLDQELQQPQTQEKTSNSLTEDSKMANAKQLSSDAEAQKLGKPSAHASQSFCESSSETPFHFTLPKEGDIIPPLTGATPPLIGHLKLEPKRHSTPIGISNYPESTIATSDVMSESMVETHDPILGSGKGDSGAAPDVDDKLCLRMKLVSPETEASEESLQFNLEKPATGERKNGSTAVAESVASPQKTMSVLSCICEARQENEARSEDPPTTPIRGNLLHFPSSQGEEEKEKLEGDHTIRQSQQPMKPISPVKDPVSPASQKMVIQGPSSPQGEAMVTDVLEDQKEGRSTNKENPSKALIERPSQNNIGIQTMECSLRVPETVSAATQTIKNVCEQGTSTVDQNFGKQDATVQTERGSGEKPVSAPGDDTESLHSQGEEEFDMPQPPHGHVLHRHMRTIREVRTLVTRVITDVYYVDGTEVERKVTEETEEPIVECQECETEVSPSQTGGSSGDLGDISSFSSKASSLHRTSSGTSLSAMHSSGSSGKGAGPLRGKTSGTEPADFALPSSRGGPGKLSPRKGVSQTGTPVCEEDGDAGLGIRQGGKAPVTPRGRGRRGRPPSRTTGTRETAVPGPLGIEDISPNLSPDDKSFSRVVPRVPDSTRRTDVGAGALRRSDSPEIPFQAAAGPSDGLDASSPGNSFVGLRVVAKWSSNGYFYSGKITRDVGAGKYKLLFDDGYECDVLGKDILLCDPIPLDTEVTALSEDEYFSAGVVKGHRKESGELYYSIEKEGQRKWYKRMAVILSLEQGNRLREQYGLGPYEAVTPLTKAADISLDNLVEGKRKRRSNVSSPATPTASSSSSTTPTRKITESPRASMGVLSGKRKLITSEEERSPAKRGRKSATVKPGAVGAGEFVSPCESGDNTGEPSALEEQRGPLPLNKTLFLGYAFLLTMATTSDKLASRSKLPDGPTGSSEEEEEFLEIPPFNKQYTESQLRAGAGYILEDFNEAQCNTAYQCLLIADQHCRTRKYFLCLASGIPCVSHVWVHDSCHANQLQNYRNYLLPAGYSLEEQRILDWQPRENPFQNLKVLLVSDQQQNFLELWSEILMTGGAASVKQHHSSAHNKDIALGVFDVVVTDPSCPASVLKCAEALQLPVVSQEWVIQCLIVGERIGFKQHPKYKHDYVSH

The assay covers variants of B1. The experiment in a line: IP-MS (FLAG immunoprecipitation, MS/MS); HEK293T, 24 hr after transfection; read off a plot.
As to chain 1 MGSLSSRVLRQPRPALAQQAQGARAGGSARRPDTGDDAAGHGFCYCAGSHKRKRSSGSFCYCHPDSETDEDEEEGDEQQRLLNTPRRKKLKSTSKYIYQTLFLNGENSDIKICALGEEWSLHKIYLCQSGYFSSMFSGSWKKSSMNIIELEIPDQNIDVEALQVAFGSLYRDDVLIKPSRVVAILAAACLLQLDGLIQQCGETMKETVNVKTVCGYYTSAGTYGLDSVKKKCLEWLLNNLMTHQNVELFKELSINVMKQLIGSSNLFVMQVEMDIYTALKKWMFLQLVPSWNGSLKQLLTETDVWFSKQRKDFEGMAFLETEQGKPFVSVFRHLRLQYIISDLASARIIEQDAVVPSEWLSSVYKQQWFAMLRAEQDSEVGPQEINKEELEGNSMRCGRKLAKDGEYCWRWTGFNFGFDLLVTYTNRYIIFKRNTLNQPCSGSVSLQPRRSIAFRLRLASFDSSGKLICSRTTGYQILTLEKDQEQVVMNLDSRLLIFPLYICCNFLYISPEKKN [chain 1 E142K], the screen value is about 180.

The record behind these values is paper PMC12815461 (2026).
